B1: CPEB3 Ribozyme (parent)
chain: UAACAGGGGGCCACAGCAGAAGCGUUCACGUCGCAGCCCCUGUCAGAUUCUGGUGAAUCUGCGAAUUCUGCUGUAUAUCUC

This data set covers variants of B1. Description: self-cleavage, relative activity (ratio to wild type); higher = more cleavage; in vitro, sequencing. The gist of the method: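 Relative activity compares each variant's cleaved/total read fraction with that of the unmutated ribozyme. To get these fractions, barcoded CPEB3 ribozyme libraries from rounds of error-prone PCR were transcribed with T7 RNA polymerase for 5 hours at 37°C and then given 15 min of DNase I treatment before EDTA was added. The RNAs were reverse transcribed with template switching and sequenced on Illumina, and DNA sequencing linked barcodes to variants. A minimum of 5 reads applied, and three batches were averaged.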
In the case of UAACAGGGGGCCACAGCAGAAGCGUUCGCGUCGCAGCCCCUAUCAGAUUCUGGUGAAUCUGCGAAUUCUGCUGUAUAUCUC [A28G G42A], the self-cleavage is 0.46.

For UAACAGGGGGCCACAGCAGAAGCGUUCGCGUCGCAGCCCCUUUCAGAUUCUGGUGAAUCUGCGAAUUCUGCUGUAUAUCUC [A28G G42U], the self-cleavage stood at 0.26.

As to UAACAGGGGGCCACAGCAGAAGCGUUCGCGUCGCAGCCCCUCUCAGAUUCUGGUGAAUCUGCGAAUUCUGCUGUAUAUCUC [A28G G42C], the self-cleavage was found to be 0.18.

With UAACAGGGGGCCACAGCAGAAGCGUUCGCGUCGCAGCCCCUGUCAGAUUCUGGUGAAUCUGCUAAUUCUGCUGUAUAUCUC [A28G G63U], the self-cleavage is 0.8.

UAACAGGGGGCCACAGCAGAAGCGUUCGCGUCGCAGCCCCUGUCAGAUUCUGGUGAAUCUGCAAAUUCUGCUGUAUAUCUC [A28G G63A]: the self-cleavage is 0.38.

For the variant UAACAGGGGGCCACAGCAGAAGCGUUCGCGUCGCAGCCCCUGUCAGAUUAUGGUGAAUCUGCGAAUUCUGCUGUAUAUCUC [A28G C50A], the self-cleavage amounted to 0.48.

On to UAACAGGGGGCCACAGCAGAAGCGUUCGCGUCGCAGCCCCUGUCAGAUUGUGGUGAAUCUGCGAAUUCUGCUGUAUAUCUC [A28G C50G], for which the self-cleavage turned out to be 0.29.

Take UAACAGGGGGCCACAGCAGAAGCGUUCGCGUCGCAGCCCCUGUCAGAUUUUGGUGAAUCUGCGAAUUCUGCUGUAUAUCUC [A28G C50U]: the self-cleavage was found to be 0.48.

Regarding UAACAGGGGGCCACAGCAGAAGCGUUCGCGUCACAGCCCCUGUCAGAUUCUGGUGAAUCUGCGAAUUCUGCUGUAUAUCUC [A28G G33A], the self-cleavage turned out to be 0.22.

Take UAACAGGGGGCCACAGCAGAAGCGUUCGCGUCUCAGCCCCUGUCAGAUUCUGGUGAAUCUGCGAAUUCUGCUGUAUAUCUC [A28G G33U]: the self-cleavage came out at 0.16.

On to UAACAGGGGGCCACAGCAGAAGCGUUCGCGUCGCAGCCCUUGUCAGAUUCUGGUGAAUCUGCGAAUUCUGCUGUAUAUCUC [A28G C40U], for which the self-cleavage was 0.48.

As to UAACAGGGGGCCACAGCAGAAGCGUUCGCGUCGCAGCCCGUGUCAGAUUCUGGUGAAUCUGCGAAUUCUGCUGUAUAUCUC [A28G C40G], the self-cleavage was determined as 0.22.

For UAACAGGGGGCCACAGCAGAAGCGUUCGCGUCGCAGCCCCUGUCAGAUUCUGGUGAAUCUGCGAAUUCUGAUGUAUAUCUC [A28G C71A], the self-cleavage is 0.14.

Regarding UAACAGGGGGCCACAGCAGAAGCGUUCGCGUCGCAGCCCCUGUCAGAUUCUGGUGAAUCUGCGAAUUCUGUUGUAUAUCUC [A28G C71U], the self-cleavage was found to be 0.15.

As for UAACAGGGGGCCACAGCAGAAGCGUUCGUGUCGCAGCCCCUGUCAGAUUCUGGUGAAUCUGCGAAUUCUGCUGUAUAUCUC [A28G C29U], the self-cleavage stood at 0.52.

As to UAACAGGGGGCCACAGCAGAAGCGUUCGCGUCGCAGCCCCUGUCAGAUUCUCGUGAAUCUGCGAAUUCUGCUGUAUAUCUC [A28G G52C], the self-cleavage amounted to 0.42.

For the variant UAACAGGGGGCCACAGCAGAAGCGUUCGCGUCGCAGCCCCUGUCAGAUUCUAGUGAAUCUGCGAAUUCUGCUGUAUAUCUC [A28G G52A], the self-cleavage was found to be 0.76.

Regarding UAACAGGGGGCCACAGCAGAAGCGUUCGCGUCGCAGCCCCUGUCACAUUCUGGUGAAUCUGCGAAUUCUGCUGUAUAUCUC [A28G G46C], the self-cleavage turned out to be 0.08.

Take UAACAGGGGGCCACAGCAGAAGCGUUCGCGUCGCAGCCCCUGUCAAAUUCUGGUGAAUCUGCGAAUUCUGCUGUAUAUCUC [A28G G46A]: the self-cleavage is 0.09.

As for UAACAGGGGGCCACAGCAGAAGCGUUCGCGUCGCAGCCCCUGUAAGAUUCUGGUGAAUCUGCGAAUUCUGCUGUAUAUCUC [A28G C44A], the self-cleavage was found to be 0.12.

As to UAACAGGGGGCCACAGCAGAAGCGUUCGCGUCGCAGCCCCUGUUAGAUUCUGGUGAAUCUGCGAAUUCUGCUGUAUAUCUC [A28G C44U], the self-cleavage was determined as 0.28.

Take UAACAGGGGGCCACAGCAGAAGCGUUCGCGUAGCAGCCCCUGUCAGAUUCUGGUGAAUCUGCGAAUUCUGCUGUAUAUCUC [A28G C32A]: the self-cleavage worked out at 0.13.

As for UAACAGGGGGCCACAGCAGAAGCGUUCGCGUUGCAGCCCCUGUCAGAUUCUGGUGAAUCUGCGAAUUCUGCUGUAUAUCUC [A28G C32U], the self-cleavage worked out at 0.24.

With UAACAGGGGGCCACAGCAGAAGCGUUCGCGUCGGAGCCCCUGUCAGAUUCUGGUGAAUCUGCGAAUUCUGCUGUAUAUCUC [A28G C34G], the self-cleavage stood at 0.35.

Turning to UAACAGGGGGCCACAGCAGAAGCGUUCGCGUCGAAGCCCCUGUCAGAUUCUGGUGAAUCUGCGAAUUCUGCUGUAUAUCUC [A28G C34A], the self-cleavage came out at 0.32.

For UAACAGGGGGCCACAGCAGAAGCGUUCGCGUCGUAGCCCCUGUCAGAUUCUGGUGAAUCUGCGAAUUCUGCUGUAUAUCUC [A28G C34U], the self-cleavage is 0.32.

With UAACAGGGGGCCACAGCAGAAGCGUUCGCGUCGCAGCCUCUGUCAGAUUCUGGUGAAUCUGCGAAUUCUGCUGUAUAUCUC [A28G C39U], the self-cleavage came to 0.57.

As for UAACAGGGGGCCACAGCAGAAGCGUUCGCGUCGCAGCCACUGUCAGAUUCUGGUGAAUCUGCGAAUUCUGCUGUAUAUCUC [A28G C39A], the self-cleavage was 0.06.

UAACAGGGGGCCACAGCAGAAGCGUUCGCGUCGCAGCCCCUGUCAGAUUCUGGUGAAUCUGCGAAUUCUGCUGUAUUUCUC [A28G A77U]: the self-cleavage stood at 0.79.

Turning to UAACAGGGGGCCACAGCAGAAGCGUUCGCGUCGCAGCCCCUGUCAGAUUCUGGUGAAUCUGCGAAUUCUGCUGUAUGUCUC [A28G A77G], the self-cleavage was found to be 0.72.

Regarding UAACAGGGGGCCACAGCAGAAGCGUUCGCGUCGCAGCCCCUGUCAGAUUCUGGUGAAUCUGCGAAUUCUGCUGUAUCUCUC [A28G A77C], the self-cleavage is 0.58.

As to UAACAGGGGGCCACAGCAGAAGCGUUCGCGUCGCAGCCCCUGUCAGAUUCUGAUGAAUCUGCGAAUUCUGCUGUAUAUCUC [A28G G53A], the self-cleavage amounted to 0.78.

As to UAACAGGGGGCCACAGCAGAAGCGUUCGCGUCGCAGCCCCUGUCAGAUUCUGGUGAAUCUGUGAAUUCUGCUGUAUAUCUC [A28G C62U], the self-cleavage amounted to 0.27.

As to UAACAGGGGGCCACAGCAGAAGCGUUCGCGUCGCAGCCCCUGUCAGAUUCUGGUGAAUCUGAGAAUUCUGCUGUAUAUCUC [A28G C62A], the self-cleavage is 0.23.
